# B1: SARS-CoV-2 RBM 20mer F486-Y505 (on peptide array) (peptide)
# peptide: not shown
# Molecular target: human ACE2-Fc (Q18-S740) recombinant protein (human, UniProt Q9BYF1 18-740)
# Assay: peptide or protein array
# Conditions: both partners purified
# human ACE2-Fc (Q18-S740) recombinant protein, sequence (Q9BYF1 18-740): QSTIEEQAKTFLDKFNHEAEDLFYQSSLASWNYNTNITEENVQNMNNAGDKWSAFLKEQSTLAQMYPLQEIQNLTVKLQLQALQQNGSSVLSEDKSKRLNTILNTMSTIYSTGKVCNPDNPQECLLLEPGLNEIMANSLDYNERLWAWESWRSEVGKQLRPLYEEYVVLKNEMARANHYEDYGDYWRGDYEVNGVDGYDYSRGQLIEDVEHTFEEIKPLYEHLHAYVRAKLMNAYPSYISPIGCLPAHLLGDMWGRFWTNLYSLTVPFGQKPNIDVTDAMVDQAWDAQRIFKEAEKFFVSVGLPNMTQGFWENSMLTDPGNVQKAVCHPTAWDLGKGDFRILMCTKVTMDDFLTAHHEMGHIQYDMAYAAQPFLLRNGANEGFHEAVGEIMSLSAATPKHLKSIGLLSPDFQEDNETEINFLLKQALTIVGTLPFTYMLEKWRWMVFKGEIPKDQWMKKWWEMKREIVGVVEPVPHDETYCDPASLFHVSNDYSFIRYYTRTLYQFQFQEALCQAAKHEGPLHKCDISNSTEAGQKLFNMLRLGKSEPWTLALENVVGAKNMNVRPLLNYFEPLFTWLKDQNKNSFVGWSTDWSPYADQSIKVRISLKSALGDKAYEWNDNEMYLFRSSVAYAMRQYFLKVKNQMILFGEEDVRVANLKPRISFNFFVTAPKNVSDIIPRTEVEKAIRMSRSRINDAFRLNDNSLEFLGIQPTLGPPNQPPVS
row,Binder,binding result
1,FNCYFPLQSYGFQPTNGVGYQPY,binds
2,"SKVGGNYNYLYRLFRKSNLK [SARS-CoV-2 RBM peptide S438-K462 with S438-D442 removed (N-terminal truncation, on peptide array)]",binds
3,"EGFNCYFPLQSYGFQPTNGVGY [SARS-CoV-2 RBM peptide E484-Y508 with Q506-Y508 removed (C-terminal truncation, on peptide array)]",binds
4,"SNNLDSKVGGNYNYLYRLFRK [SARS-CoV-2 RBM peptide S438-K462 with S459-K462 removed (C-terminal truncation, on peptide array)]",binds
5,B1,binds

# — paper PMC8601423 (PLoS ONE, 2021)
